From patent US20150080315A1

Experiments:
[1] = molecular target: HDAC complex / nucleosome remodeling and deacetylase (NuRD) complex in SNU-398 nuclear extracts; test: cell-based or functional assay
[2] = molecular target: HDAC complex / nucleosome remodeling and deacetylase (NuRD) complex in SNU-398 nuclear extracts; test: fluorescence polarization competition; unlabeled peptide displaces FITC-labeled wild type peptide from complexes in SNU-398 nuclear extracts

Row | Molecule | engraftment of human AML cells treated with wild type peptide in NSG mice [1] [%] | IC50 [2] [µM]
1 | endogenous SALL4 (SNU-398 cells) (from UniProt Q9UJQ4 1-1053) | 0.5 | 
2 | MSRRKQAKPQHI [wild type 12-AA SALL4 peptide (…), unlabeled] |  | 5
